Laboratory results: patent US10400249B2, “HPPD variants and methods of use” (priority 2014, dated 2019)
Changes are numbered by the printed parent chain. In names and notes the source's numbering stands.

B1: K306: PfHPPD variant P215L, Q226H, E335P, G336F, A340E (protein)
chain: MADLYENPMGLMGFEFIEFASPTPGTLEPIFEIMGFTKVATHRSKNVHLYRQGEINLILNNEPNSIASYFAAEHGPSVCGMAFRVKDSQKAYNRALELGAQPIHIDTGPMELNLPAIKGIGGAPLYLIDRFGEGSSIYDIDFVYLEGVERNPVGAGLKVIDHLTHNVYRGRMVYWANFYEKLFNFREARYFDIKGEYTGLTSKAMSAPDGMIRILLNEESSKGAGHIEEFLMQFNGEGIQHVAFLTDDLVKTWDALKKIGMRFMTAPPDTYYEMLEGRLPDHGEPVDQLQARGILLDGSSVEGDKRLLLQIFSETLMGPVFFEFIQRKGDDGFGPFNFKELFESIERDQVRRGVLTAD
modifications: HPPD variant - K306
notes: PfHPPD variant P215L, Q226H, E335P, G336F, A340E
B2: K363: PfHPPD variant Q226H, E335P, G336F, A340E (protein)
chain: B1 chain with L215P
modifications: HPPD variant - K363
notes: PfHPPD variant Q226H, E335P, G336F, A340E
B3: K250: PfHPPD variant A188G, R189C, P215L, E335P, G336F, A340E (protein)
chain: B1 chain with A188G, R189C, H226Q
modifications: HPPD variant - K250
notes: PfHPPD variant A188G, R189C, P215L, E335P, G336F, A340E
B4: K325: PfHPPD variant A188G, R189C, P215N, E335P, G336F, A340E (protein)
chain: B1 chain with A188G, R189C, L215N, H226Q
modifications: HPPD variant - K325
notes: PfHPPD variant A188G, R189C, P215N, E335P, G336F, A340E
B5: K357: PfHPPD variant A188G, R189C, E335P, G336F, A340E (protein)
chain: B1 chain with A188G, R189C, L215P, H226Q
modifications: HPPD variant - K357
notes: PfHPPD variant A188G, R189C, E335P, G336F, A340E
B6: K303: PfHPPD variant L200I, P215L, E335P, G336F, A340E (protein)
chain: B1 chain with L200I, H226Q
modifications: HPPD variant - K303
notes: PfHPPD variant L200I, P215L, E335P, G336F, A340E
B7: K304: PfHPPD variant L200M, P215L, E335P, G336F, A340E (protein)
chain: B1 chain with L200M, H226Q
modifications: HPPD variant - K304
notes: PfHPPD variant L200M, P215L, E335P, G336F, A340E
B8: K360: PfHPPD variant L200I, E335P, G336F, A340E (protein)
chain: B1 chain with L200I, L215P, H226Q
modifications: HPPD variant - K360
notes: PfHPPD variant L200I, E335P, G336F, A340E
B9: K361: PfHPPD variant L200M, E335P, G336F, A340E (protein)
chain: B1 chain with L200M, L215P, H226Q
modifications: HPPD variant - K361
notes: PfHPPD variant L200M, E335P, G336F, A340E
B10: PfG336W: reference PfHPPD mutant G336W (protein)
chain: B1 chain with L215P, H226Q, P335E, F336W, E340A
modifications: HPPD variant - Pf336W
B11: PfG336F: reference PfHPPD mutant G336F (protein)
chain: B1 chain with L215P, H226Q, P335E, E340A
modifications: HPPD variant - Pf336F
B12: PfG336Y: reference PfHPPD mutant G336Y (protein)
chain: B1 chain with L215P, H226Q, P335E, F336Y, E340A
modifications: HPPD variant - Pf336Y
B13: PfEvo33: reference PfHPPD mutant E335P, G336W (protein)
chain: B1 chain with L215P, H226Q, F336W, E340A
modifications: HPPD variant - PfEvo33

Test system: Pseudomonas fluorescens HPPD protein
Test: HGD assay: HPPD activity coupled to HGA dioxygenase, pI50 and type of inhibition (time-course)
Format: biochemical
Conditions: not given
Description: (§1) HPPD proteins were produced and purified as described in WO2011/076882. The activity of HPPD proteins in absence or presence of HPPD inhibitors was determined using either the so called OD assay or the HGD assay.
(§2) • a) The OD assay: The HPPD activity was determined colourimetrically by measuring the amount of HPP remaining in the assay mixture at the end of the incubation period after derivatisation of HPP with 2,4-dinitrophenylhydrazine (DNP) to form an amber-brown colored 2,4-dinitrophenylhydrazone under alkaline conditions. The assay was carried out at room temperature in Greiner F-bottom 96 well microplates. The assay mixture contained 50 mM Tris-HCl pH 7.8, 0.5 mM HPP, 10 mM ascorbate, 650 units of catalase and appropriate amounts of purified HPPD enzyme in a total assay volume of 100 μl. The reaction was started by the addition of enzyme. After an incubation time of 24 minutes, the reaction was stopped by the addition of 50 μl of a solution of 0.04% DNP dissolved in 3.8 N HCl. After a further 15-minute incubation period 100 μl of a 5 N KOH solution was added to the reaction mixture and the amount of unconsumed HPP was measured photometrically at 405 nm. Enzyme activity was calculated as the difference in E405 between assays lacking enzyme (negative control) and the enzyme containing assays (ΔE405=E405(negative control)−E405). Enzyme activity (nmol substrate consumed per min) was calculated from a calibration curve generated from HPP. pI50-values (the negative log value of the concentration of inhibitor necessary to inhibit 50% of the enzyme activity in molar concentration were determined from dose-response plots of HPPD activity versus inhibitor concentration tested (5.0×10^−6, 1.0×10^−5, 2.5×10^−5, 4.0×10^−5, 7.0×10^−5, 1.0×10^−4, 2.0×10^−4 and 5.0×10^−4M) using the 4 Parameter Logistic Model or Sigmoidal Dose-Response Model of the ID Business Solutions Ltd. XLfit software suite. The result “>5.6” means that the inhibition at the lowest inhibitor concentration tested was higher than 85% and the pI50-value could therefore not be precisely calculated within in the range of concentration of inhibitor tested. The result “<2.5” means that the inhibition at the highest inhibitor concentration tested was lower than 25% and the pI50-value could therefore not be precisely calculated within in the range of concentration of inhibitor tested. “n.d.” means not determined. • b) The HGD assay: With the HGD assay HPPD activity was measured at room temperature by adding appropriate amounts of HPPD to a solution of 200 mM Tris-HCl pH 7.6, 10 mM ascorbate, 20 μM FeSO4, 650 units of catalase, 8 μg HGA dioxygenase (HGA: homogentisate) and 600 μM HPP in a total volume of 1 ml. Initial reaction rates in the absence or presence of inhibitors were determined from the increase in absorbance at 318 nm due to the formation of maleylacetoacetate (ε318=11,900 M−1 cm-1). pI50-values (the negative log value of the concentration of inhibitor necessary to inhibit 50% of the enzyme activity in molar concentration were determined from dose-response plots of HPPD activity versus inhibitor concentration tested using the 4 Parameter Logistic Model or Sigmoidal Dose-Response Model of the ID Business Solutions Ltd. XLfit software suite. Due to the UV absorption of the HPPD inhibitors tested, inhibitor concentrations >100 μM could not be tested. The result “<4” means that the inhibition at 100 μM inhibitor concentration was lower than 25% and the pI50-value could therefore not be precisely calculated within in the range of concentration of inhibitor tested. “n.d.” means not determined. The HGD assay allowed to continuously follow HPPD-catalyzed HGA formation over time was therefore used to determine the inhibition type of the HPPD inhibitors tested. […] When in the presence of an inhibitor the HPPD activity was inhibited but the inhibition was found not to […] in a time-dependent manner, the inhibitor was called reversible (abbreviation “rev”). […]

Molecule | mechanism of inhibition by Cmpd. 2, time-course of inhibition
B1 | fully reversible inhibitor
B2 | fully reversible inhibitor
B3 | fully reversible inhibitor
B4 | fully reversible inhibitor
B5 | fully reversible inhibitor
B6 | fully reversible inhibitor
B7 | fully reversible inhibitor
B8 | fully reversible inhibitor
B9 | fully reversible inhibitor

Same assay, conditions: assay not given, follows the time-course analysis (HGD assay)

Molecule | pI50-values of Cmpd. 2
B3 | < 4
B4 | 5.5
B5 | 5.1
B6 | 5.0
B7 | 4.7
B8 | 5.5
B9 | 5.3

Same assay, conditions: inhibitor Cmpd. 1; HGD assay

Molecule | tolerance (pI50) Cmpd. 1
B10 | 6.2

Same assay, conditions: inhibitor Cmpd. 2; HGD assay

Molecule | tolerance (pI50) Cmpd. 2
B1 | 4.9
B10 | 6.8

Same assay, conditions: inhibitor Cmpd. 3; HGD assay

Molecule | tolerance (pI50) Cmpd. 3
B10 | 6.4

Same assay, conditions: inhibitor Cmpd. 4; HGD assay

Molecule | tolerance (pI50) Cmpd. 4
B10 | 6.7

Same assay, conditions: inhibitor Cmpd. 5; HGD assay

Molecule | tolerance (pI50) Cmpd. 5
B10 | 6.1

Same assay, conditions: inhibitor diketonitrile (DKN); HGD assay

Molecule | tolerance (pI50) DKN
B11 | 5.1
B12 | 4.9
B13 | 4.6

Same assay, conditions: inhibitor mesotrione (MST); HGD assay

Molecule | tolerance (pI50) MST
B11 | 5.1
B12 | 5.0
B10 | 5.5
B13 | 5.5

Same assay, conditions: inhibitor tembotrione (TBT); HGD assay

Molecule | tolerance (pI50) TBT
B11 | 5.9
B10 | 6.1
B13 | 6.2

Test system: Pseudomonas fluorescens HPPD protein
Test: OD assay: HPPD activity and pI50 from HPP remaining after derivatisation with DNP
Format: biochemical
Conditions: HPPD enzyme activity of the clone
Description: as §1, §2

Molecule | Activity DeltaE/24 min μg Protein
B1 | 0.01 DeltaE/24 min μg Protein
B2 | 0.20 DeltaE/24 min μg Protein
B3 | 0.07 DeltaE/24 min μg Protein
B4 | 0.41 DeltaE/24 min μg Protein
B5 | 0.47 DeltaE/24 min μg Protein
B6 | 0.008 DeltaE/24 min μg Protein
B7 | 0.011 DeltaE/24 min μg Protein
B8 | 0.28 DeltaE/24 min μg Protein
B9 | 0.21 DeltaE/24 min μg Protein
B11 | 0.66 DeltaE/24 min μg Protein
B12 | 0.66 DeltaE/24 min μg Protein
B10 | 0.40 DeltaE/24 min μg Protein
B13 | 0.25 DeltaE/24 min μg Protein

Same assay, conditions: inhibitor Cmpd. 2

Molecule | tolerance (pI50) Cmpd. 2
B1 | 5.1
B2 | 5.4
B3 | 4.6
B4 | 5.6
B5 | 5.4
B6 | 4.6
B7 | 4.6
B8 | 5.3
B9 | 5.2

Same assay, conditions: inhibitor diketonitrile (DKN), negative log of molar concentration

Molecule | tolerance (pI50) DKN
B1 | <2.5
B2 | 3.8
B3 | <2.5
B4 | <2.5
B5 | 3.5
B8 | 3.6
B9 | 3.4
B11 | 5.3
B12 | 5.2
B10 | 5.0
B13 | 4.3

Same assay, conditions: inhibitor mesotrione (MST)

Molecule | tolerance (pI50) MST
B1 | 3.7
B2 | 4.3
B3 | 3.0
B4 | 3.6
B5 | 4.1
B6 | 3.2
B7 | 3.2
B8 | 4.3
B9 | 4.0
B11 | 5.6
B12 | 5.5
B10 | 5.3
B13 | 5.1

Same assay, conditions: inhibitor tembotrione (TBT)

Molecule | tolerance (pI50) TBT
B1 | 4.8
B2 | 5.5
B3 | 3.8
B4 | 4.6
B5 | 5.3
B6 | 4.2
B7 | 4.2
B8 | 5.3
B9 | 5.1
